The domain aggregation screens of Martell et al. (2025)

Test: soluble fraction after stress (log2 fold change); higher = more stays soluble; pooled small domains, quantitative proteomics
Conditions: stress: pH 4
Method in brief: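 Pooled custom libraries of small protein domains were subjected to pH 4 and measured by high-throughput quantitative proteomics. The log2 fold change in soluble amount per domain is reported, higher values meaning more remained soluble. This is used as a measure of aggregation propensity.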

Row | Sequence | soluble fraction (log2)
1 | HMPEDQISYTDLIKQINDGNVEKIKMTVGSTTIKVNLKEQEEPKTAIVPSTQAFIELVQEKVQDGNEITLI | -0.39
2 | HMPEITPAMIKALLSSLSEELAFASVTKVYAVLHNLFKAALLDDTIDRNPMDKVPRPRKSKDAAL | -0.424
3 | HMPELPEVETSRRGIEPHLVGATILHAVVRNGRLRWPVSEEIYRLSDQPVLSVQRRAKYLLLELQA | 0.369
4 | HMPELSPEERAIIETLQKNNDLQVNIIAIKTGMDMGSLSAVLFDLEMKGLVKLLAGGMYHLI | -0.112
5 | HMPEPAPALPAKTRVSIRRETGGIIWHEGAWTISPPIRAYDGRWYVAVTTARKGIEFVPVSSVIRS | -0.0262
6 | HMPEPMKLSDLPPELWQRVSDLFDEVIDLPETDRIPYIRNLWGSEPLVAKELMALLVAAANVD | -1.1
7 | HMPESFSEMQKRTGVGEFSDDALSAKYVDSIDADVMSLDEYIMKVRGISLDDLEAERALRAR | -0.884
8 | HMPETAQLTDIQVSRSQAHTGIFSLHYYLTGTDSRGERVRLEISGDDYTRLSGSSSVTVEYYRHTGRIVRY | -0.552
9 | HMPETYVVFSKDGYANLRRGTTINSEILDVLDNGEYVTKLDEVGEWYRVEYADFDGGYIHKSQLKNI | -1.58
10 | HMPFDRTVQLAGARARQLQALPRYREVLRLLDEGMNPREIGQVLDPPVTRQRASALIQQAKRAQMLGLFED | -0.0649
11 | HMPFNLKSLADRLSHVFPGLVKMRDDIGAIIVMDKIKVTEHGVTEGGGLAADRVRAVYNEFIKEY | 0.334
12 | HMPFSLHGVNEGSRNDNAARIAGYLISKNLNLDFVRIFLHNWNRDNKPPLPQQEIDSVVDNVKKTHDRKN | -0.0731
13 | HMPGEATVPSVIGMTKAEAKAKLQASGFELGYSEFVASDKPKGEIVEQDPGAGETAKGGTEVNVKISDGS | -0.187
14 | HMPGLDTTILSDILSLKKELPSRSAAKILIMLILAKRIEEGSLNLRTINRILNQYGYTRESLL | 0.327
15 | HMPGLQSVTPAELKIGMYVILPLAWDEHPFLKNHFLIQSEAQINKIRELGTKGIQIDLSKSHP | 0.0126
16 | HMPGMLVVYVTGAVRQPGRMVTLAAGSRVSDAIDAAGGLADDADAQALNLSARLNDGDLVHVPSALD | -0.227
17 | HMPHILEITSSKILDELQDEKKMVYFHFEKQSNQYVYRLIFNSKNELMEFKKSLEKNSSILDVRADM | -0.354
18 | HMPHITDAEWEVMRVVWANHHVTSKEVISILEDKMNWKATTIKTLLGRLVEKGALSTEQDGKKFIYTAR | -0.622
19 | HMPHTDATDKQIIALILETLKDGQKHSVSEMTFPGIPREKTAQLLHQMIEEETVRIQNGVLFLPH | -0.118
20 | HMPIDNTLLSRITSLGVSTTEAEKLISKHGEEALKANLEVVEERLSKPNLPLLDSPAAYLKTALKNG | 0.224
21 | HMPIEQVEVPNLTNMTREEAESTLTSLNLKAQVHEEANEADEGKVFKQGTNTGEMVDEGSTIEIWVS | -0.555
22 | HMPIHAGERLTLRLAGEGREAGQAIGYLEDGTLVIVERARHLIGQDVTVEVTRTLQTAGGRLVFAHLVE | -0.896
23 | HMPKDLEKRAAILAAAKHLFPVHGFEGTSMDAIAALANVSKLTVYSHFKDKESLFTEAIREK | 0.163
24 | HMPKDMAKRASILTAASKLFVQHGYGGVSMDQIAAEAGVSKLTVYSHYGDKDSLFAAAVQAH | 0.163
25 | HMPKELAPYDILARYYLTVNNSKQSIALLEQYLDKAGSAPAALKAKLLLAGILYPSGNKERAEKLVEEVIK | -0.136

Row | Sequence | soluble fraction (log2)
26 | HMPKETFLNLDEEKRQAIINVLLKNFSEQHISQVKVSAIVSGIGMSRGAFYKYFEDLEDAYRFTISYFSA | -0.0967
27 | HMPKLTKEEIQFIDNYLKNSGVEYIDTRAEVVDHVASEIESRLSANNTTNFYEEFKVYMVQHKETLLK | -0.96
28 | HMPKLVGEVMQTLDALRREKGLSLLLVEQNARAALGVVDRVYVLERGRVVFEGSAKEAMEDQDVMEFYLG | 0.0193
29 | HMPKRSKDEAELEFLEMLRDNQVDSTWSFGKIISQLGSTDPRYWMVDDDPLWKRQIFEKYLSNR | -1.79
30 | HMPLDISDDSKAVLKLLKNDSNELNTVKSASGLSNKKWDKTIKELTKNKIVSVSKTEDGLYIHLI | 0.336
31 | HMPLDYQELRNISPQAARQAILQILKANKGNVSQTARMLGITRKTVYKAMAKREAGNLDDGSRAPK | 0.265
32 | HMPLLELPDDFYPAWKPKTIYVQGQRIMLDGVAFEAKWWTQGDNPASGQADPGSSPWRTLTQEEIAKLLE | -0.56
33 | HMPLLKIGAQGHDVRVVQEALQRAGYAIEGVTGIFDEATREAVLAFQRDQQLTESGTVDRATWHALRR | -0.52
34 | HMPLLSPRQLDVLSLAAGGLSDAQIAGRLVLSESTVRVHFHHIIEKLGVTDRAGAIAWYEQSRS | -0.378
35 | HMPLNAFDVAGYRLGYGGGYFDRTLAALSPRPLAVGVGFEINRLESIRPEAHDQRLDWIVTENGAFRPA | -0.944
36 | HMPLNAHIVGRGKRDRRGKRGAPYSIVLELGRDENGKRIQKWYSGYPTKAAAEEDKIRMLRELQTGEYVPQ | 0.153
37 | HMPLPFSPVMFVGTKSGAQTDLDGNYKIETYYSSDSLKVVVLGYAPLAKKVKQGTTSVVNFELSAAS | 0.104
38 | HMPLPLYVQIKESLRGQIFDGTYGEHERLPSENDLMSSFGVSRITVRQALSDLEKEELIFKVPGKGAFVSR | -1.28
39 | HMPLQKNRPKIKPQKVVFLFSVEWMWSPAHNRIDSYFINIKPSRYYLWNSFFDRHSFSDYWDFIGYTEN | 0.22
40 | HMPLSDAEKAAAIATQAKERALKLSPEMISYLLRHASRDMRTLSMLVVALDQYTLEQKRPVTLPLLRELLS | -0.0153
41 | HMPMIQHFHRMISAALGISEKQIVQTLGLLNDGATIPFISRYRKEVTGGLDEVQIESIKTHYEKLNEIAK | -0.999
42 | HMPMPQDEVSYALGLSIGQNFKASGIKAITSEDFIAGLQDALAEREPQMTTERAREVINQLFMRLQQEESE | -0.784
43 | HMPMTDYQLIRSNRRTIALQITRDARVVVRAPLYASEADIRRFVESHRAWIESHLDRQRARTD | 0.201
44 | HMPMTRILFLPDDRTILQFDSAEPAEDLVSAVNAGRWLPPEPYRSGFGLGLPENRLRASRQGALVVVMLS | -1.19
45 | HMPNDYRKKLEILAKEKGAEYLHTMLTEVDPKSALQIHTNNIKRTIRALEFYHQTGMKISEHNEAEREK | 0.0478
46 | HMPNIHVVFAEEWTDRRLDKVLSEYFDGYSRSFIKKLFDDGLILVNSKAVKPSYKVRAGDMIDISVPDPV | -0.465
47 | HMPNPALESARPAFEAFLSRFSDGEAMRGPAWGLWSLLHRKGNAPTASHAAGRDGMGVLAFLRHWQWG | -0.551
48 | HMPPDLSEAIQKRIEGKTDEALEILRKLYNEYPESTEIITMLGRTLLDAEEYALAAFRLEQALDLGG | -1.22
49 | HMPPDVIENIFKNDANKIIDLYNMAPRGQKETIVEMIKNKRLQGINVDANVLVKLGELTGIDFVN | -1.37
50 | HMPPLVLRGVVMGADGARLAILAQGEAGAALGIGETWKEYTLRSVTDQSATLEHRSGTITLTR | -0.437

Row | Sequence | soluble fraction (log2)
51 | HMPPNPELGKKLLKLRKEFKMTQDDVANILGMSRTSFSKYENGIANPPLQVMRKLASIYNVGLEYLI | -0.0729
52 | HMPQEMIEILATPNGWLRVRQGPGTNYPEITKVNSGEEFPLLEEKDSWFKIRIEEGQEGWISSQYAQKEE | -0.0319
53 | HMPQGFEDLTEREREVLTLIAEGRTNQEIADALVISIKTVNRHRENIMAKLNLHSRVELVRYAIAQGLI | -0.723
54 | HMPQNLQDQLFELILSRYPRRADAVEDLANILHLGKDPVYRRLRGDTFLSPLEISTLALHFRISLDALIV | -1.51
55 | HMPQPEIEIAAVVPYSAGALLSRIHDDGELLAPVEYRGEGVFVHARVPADIEAAMRRGGMLSPAET | -0.164
56 | HMPQQVFKREDLQKWGLTGQADSRKRREKLGQLLGIGYGNGKQLIHRLNMFQVDRATFEQAIKQINQEEDH | 0.00776
57 | HMPQTNIYPNPAFDKLFVSNLENETNFKIMDLFGRTIINSKTKGEISISELKSGIYIIEINNFRQKFVK | -0.863
58 | HMPQVALAIDEMKRELASPDIVKTLLATTFKGLSEVNMRQAMLDGMIQGHTIADFFKKDVYAIPFGSGYSL | -0.0951
59 | HMPRPFPELTTREHDILALIARGWSNGRIADHLSLSGKTVSNYVSNILGKLQVTARAEAAERAREAGMGQ | -0.401
60 | HMPRRSYLDARKKLLGMLNSPDFNSGDQIPAERELSEVLGISRVTVRKIITELIDEGVLERRGNQGTWLVD | -0.48
61 | HMPRSREVHVEPGMVLEDVTTGFVGAVIRTEKSAGIYVIELEDRRGRRRSFPLGGGFWLDGRPIIALPPLP | 0.281
62 | HMPSLAVYPNPVKDILNIATDKPVHSIRIYNVYGSEVLRAADTNRIDVSHLPAGVYMVSADGKVTRIIK | 0.0765
63 | HMPSLGGLLALLKRNRKPDAMEALDRLISKEDRPETAEALENIREKVRNMQMREAEGLLLALMEP | -0.281
64 | HMPSLILADEPTGNLDSRNSSEVIALLKNASKRYAQTIIMITHNRSIAQSADRVLQVSDGVLTDMG | 0.0603
65 | HMPSLNDRPDDVLYLFSYFLQSFSHRQVSLPKILKKALIQHDWWGNIRELHSVALRYYIFGDTLNGAYDSL | -0.895
66 | HMPSLSREREAAILEMIERRPSTAEDVASGLGLAVNEVIKLLDGTALRGSVETFQSGEEIYYTRKR | -0.294
67 | HMPSNVKIPDVTGKTVAQARSAIEAAGLKVGKEKDEYSDSAKKDSVIRTNPQAGTQRREGSTVDLIVS | 0.22
68 | HMPSPFYIMDEVEAALDDTNLGRLITLFEELRDSSQLIVITHQKKTMEIADALYGVTMRGDGITTVVSQRL | -2.24
69 | HMPSQEQSDKNAAMAFLPVIVKNALNGKGLKISDDWKAAVNTALAQYPLVNKFFNADSPEVTELVMGL | 0.0187
70 | HMPSQLPLAFARRHGVLLRGFSNGLAQLTVRPEVSTLSLAETRRHLGVPLALEKVTTERFDQLLREAYEA | -0.152
71 | HMPSYYKELQNYSPENPVVKKRKVHPDVVNAIKYLAEITDGNPMLIKAYAQMILAHVFTTMPLIDKSV | 0.22
72 | HMPTEAIVLQQIQIRQSPSGNSKSLQQILPGAKIKITSESSVKGWKQVSLDGGQKGWIPTAAIGL | 0.302
73 | HMPTELVYTVPASAEGLRLDHFLVQHVPHMTRALATELTGAGGVRVNGRRAKKGDRLPSGAEVRLER | 0.286
74 | HMPTFAEKLHEVRKARDFTQDQLAKEMNVSRQTISHWENGRAVPDIDTIKHLSQVLDYNFLV | -0.171
75 | HMPTITIQRGIILSSTTKGFIDELSHSQIKNAIVERLGEHHVMIHESQLDAVIKYAQKKEAVINIYL | -0.0875
